Target: the molecule itself
Assay: SEC-MALS

B1: E. coli CheA (enzyme)
chain: MSMDISDFYQTFFDEADELLADMEQHLLVLQPEAPDAEQLNAIFRAAHSIKGGAGTFGFSVLQETTHLMENLLDEARRGEMQLNTDIINLFLETKDIMQEQLDAYKQSQEPDAASFDYICQALRQLALEAKGETPSAVTRLSVVAKSEPQDEQSRSQSPRRIILSRLKAGEVDLLEEELGHLTTLTDVVKGADSLSAILPGDIAEDDITAVLCFVIEADQITFETVEVSPKISTPPVLKLAAEQAPTGRVEREKTTRSNESTSIRVAVEKVDQLINLVGELVITQSMLAQRSSELDPVNHGDLITSMGQLQRNARDLQESVMSIRMMPMEYVFSRYPRLVRDLAGKLGKQVELTLVGSSTELDKSLIERIIDPLTHLVRNSLDHGIELPEKRLAAGKNSVGNLILSAEHQGGNICIEVTDDGAGLNRERILAKAASQGLTVSENMSDDEVAMLIFAPGFSTAEQVTDVSGRGVGMDVVKRNIQKMGGHVEIQSKQGTGTTIRILLPLTLAILDGMSVRVADEVFILPLNAVMESLQPREADLHPLAGGERVLEVRGEYLPIVELWKVFNVAGAKTEATQGIVVILQSGGRRYALLVDQLIGQHQVVVKNLESNYRKVPGISAATILGDGSVALIVDVSALQAINREQRMANTAA
- stoichiometry N: 2
